Measured values: paper doi:10.1101/2020.11.04.368696v1

System: CC/C=C\CCO
Test: purified protein
Details: 2 mM acetyl-CoA, 50 °C

Substance: CATec3 (CAT3_ECOLIX) (Escherichia coli; Y20F)
- Km: 6.4 ± 2.2 mM
- kcat: 2.3 ± 0.2 s⁻¹
